Source: patent US8058507B2, “HOPM1 mediated disease resistance to Pseudomonas syringae in Arabidopsis” (priority 2007, dated 2011)

Columns and labels:
[1] = system: hrcC mutant; experiment: Bacterial multiplication in HopM1 transgenic Arabidopsis plants; type: in vivo, Pseudomonas syringae; conditions: full-length HopM1 expressed in transgenic Arabidopsis
Procedure: (§1) Following inoculation, infected plants were monitored daily over a 3- to 4-day period for symptom development and bacterial multiplication. For experiments described in FIGS. 1 and 5, plants were sprayed with 30 μM dexamethasone (DEX) 24 h before bacterial inoculation (1×10^6 cfu/ml).
(§2) Leaves were harvested and surface sterilized as follows: 1) whole leaves were removed from a host plant and gently mixed in a 70% ethanol solution for 1 minute. Leaves were blotted briefly on paper towels then rinsed in sterile distilled water for 1 minute, then blotted dry on paper towels. Leaf disks were excised from leaves with a 0.5 cm^2 or smaller cork borer, depending on the size of the sample leaves; 2) leaf disks from the leaves of 2 or more independent replicate plants were pooled for a single tissue sample and placed in a 1.5-mL microfuge tube with 100 μL sterile distilled water, the amount of leaf tissue per tube was recorded as leaf surface area. Three or more samples were harvested for each time point. […] The number of serial dilutions necessary to get countable colonies were determined for each sample, however dilutions to 10^−7 were usually sufficient for any bacterial strain; 7) The samples were plated on the appropriate medium (e.g., Low salt Luria Bertani) supplemented with the necessary antibiotics to select for the specific inoculated bacterial strain. […]

[2] = system: AtMIN7; experiment: Detection of polyubiquitinated AtMIN7 in planta; type: cell-based, Arabidopsis thaliana; conditions: MG132-treated N. benthamiana leaves
From the text: Left: AtMIN7:HA and 6×His:HopM1-300, 6×His:HopM301-712 or 6×His:HopM1-712 were transiently co-expressed in MG132-treated N. benthamiana leaves. Ubiquitinated proteins were detected by western blot (WB) with a polyclonal ubiquitin (Ub) antibody (Sigma Co.). Right: AtMIN7:HA and 6×His:HopM1-712 were transiently co-expressed in 1% DMSO (−)- or MG132-treated N. benthamiana leaves. AtMIN7 was immunoprecipitated (IP) using a polyclonal AtMIN7 antibody. Ubiquitinated AtMIN7 protein was detected by western blot (WB) with a polyclonal ubiquitin (Ub) antibody (Sigma Co.). See Materials and Methods for transient expression and immunoprecipitation of AtMIN7 and HopM1 in N. benthamiana leaves.

[3] = system: AtMIN proteins; experiment: Immunoblot of AtMIN proteins co-expressed with HopM1 in yeast; type: cell-based, Arabidopsis thaliana; conditions: co-expression in yeast
From the text: AtMIN fusion proteins expressed from pB42AD were visualized by the HA epitope antibody, as was AtMIN10-HA. HopM1 fusion proteins expressed from pGilda were visualized by the LexA antibody. Coomassie Brilliant Blue-stained gels were used as loading controls. […] AtMIN12 (a putative protein predicted to be targeted to the chloroplast) was not destabilized.
HopM11-300 or full-length HopM1 pGILDA and each individual test AtMIN pB42AD were co-transformed into yeast cells as described in EXAMPLE III.
Immunoblot analysis was then performed on yeast cells lines that expressed one each of the 21 AtMIN proteins co-expressed with either HopM11-300 or full-length HopM1(1-712). […] For comparison, AtMIN12 (a hypothetical protein predicted to be targeted to the chloroplast) was not destabilized (FIG. 6A).

[4] = system: Pst DC3000; experiment: Bacterial multiplication and disease symptoms in HopM1 transgenic Arabidopsis plants; type: in vivo, Pseudomonas syringae; conditions: full-length HopM1 expressed in transgenic Arabidopsis
Procedure: as §1, §2

[5] = system: Arabidopsis Y2H cDNA library; experiment: Yeast two-hybrid (Y2H) screening with HopM1 baits; type: binding; conditions: protein used as bait
From the text: A LexA-based yeast two-hybrid system was used for screening an Arabidopsis Y2H cDNA library using full-length HopM1 and the dominant-negative domain of HopM1 (HopM11-300) as bait, in separate screenings. This system was based upon a pGilda Lex A expression vector (CLONTECHniques, OCTOBER 1999 p. 26-27, Clontech Laboratories Inc.; herein incorporated by reference in its entirety) for expressing HopM1 proteins in combination with a lacZ reporter gene on a separate plasmid that autonomously replicated in yeast (CLONTECHniques, OCTOBER 1999 p. 26-27, Clontech Laboratories Inc.; herein incorporated by reference in its entirety), see below for addition information (see, MATCHMAKER LexA Two-Hybrid System Catalog #K1609-1 and MATCHMAKER LexA Libraries User Manual (PT3040-1) Version It PR67300 and (Yeast Protocols Handbook, Protocol # PT3024-1 Version # PR13103, published 14 Mar. 2001; herein incorporated by reference in its entirety).
hopM1 DNA fragments were amplified by PCR using the primers listed below and standard PCR procedures then fragments were isolated and cloned into a bait vector pGilda Lex A (resistance to ampicillin (100 μg/ml) to E. coli hosts; Protocol # PT3147-5; Version # PR81829; Clontech Laboratories, Inc.; herein incorporated by reference in its entirety). […]

B1: full-length HopM1: Pst DC3000 type III effector, 712-aa virulence protein (SEQ ID NO:34) (protein)
chain: MISSRIGGAGGVELSRVNQQHDTVPAQTAHPNAVTAGMNPPLTPDQSGSHATESSSAGAARLNVAARHTQLLQAFKAEHGTAPVSGAPMISSRAALLIGSLLQAEPLPFEVMAEKLSPERYQLKQFQGSDLQQRLEKFAQPGQIPDKAEVGQLIKGFAQSVADQLEHFQLMHDASPATVGQHAKADKATLAVSQTALGEYAGRASKAIGEGLSNSIASLDEHISALDLTLQDAEQGNKESLHADRQALVDAKTTLVGLHADFVKSPEAKRLASVAAHTQLDNVVSDLVTARNTVGGWKGAGPIVAAAVPQFLSSMTHLGYVRLSTSDKLRDTIPETSSDANMLKASIIGMVAGIAHETVNSVVKPMFQAALQKTGLNERLNMVPMKAVDTNTVIPDPFELKSEHGELVKKTPEEVAQDKAFVKSERALLNQKKVQGSSTHPVGELMAYSAFGGSQAVRQMLNDVHQINGQTLSARALASGFGGAVSASSQTLLQLKSNYVDPQGRKIPVFTPDRAESDLKKDLLKGMDLREPSVRTTFYSKALSGIQSSALTSALPPVTAQAEGASGTLSAGAILRNMALAATGSVSYLSTLYTNQSVTAEAKALKAAGMGGATPMLDRTETALNNIRHPNRESLPHTFQKSTLSGIPRVAENAYHMGRGALQLPTQMAVDTVRVVDEGVLNAVASAREALKQPTKDDDALRALEEGLLDPR
modifications: 6xHis tag; Pseudomonas syringae pv. tomato str. DC3000
complementation effect on multiplication [1]: did not show this effect
polyubiquitination of AtMIN7 [2]: enhanced
destabilization of AtMIN proteins in yeast [3]: destabilized
complementation effect on multiplication [4]: did not show this effect
interactors recovered in Y2H screen [5]: failed to recover target interactor host proteins
